# Patent publication US20230192897A1 (NUMAB THERAPEUTICS, published 2023)
# “And” between values parts separate entries of the source, which are not always exact repeats. Equal values may be shown once. Read-outs that look alike come from different tables or passages of the source.
# T1: mouse CD137-Fc chimeric protein (mouse, UniProt P20334 24-187, limits assumed)
# T1 sequence (looked up): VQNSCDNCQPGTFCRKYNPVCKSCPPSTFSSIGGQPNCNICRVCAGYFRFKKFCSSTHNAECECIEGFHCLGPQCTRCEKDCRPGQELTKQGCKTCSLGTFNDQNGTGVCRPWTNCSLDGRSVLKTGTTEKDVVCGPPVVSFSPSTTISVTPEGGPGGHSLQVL
# Experiments:
# [1] = target: T2, CD137 on Jurkat NFkB reporter cells (human, UniProt Q07011 24-255); assay: cell-based or functional assay
# [2] = target: T2, CD137 on Jurkat NFkB reporter cells; assay: cell-based or functional assay; remark: listed apart in the source
# [3] = target: T2, CD137 on Jurkat NFkB reporter cells; assay: cell-based or functional assay; remark: listed apart in the source
# [4] = target: T3, Fc tagged human PDL1 (human, UniProt Q9NZQ7 19-239); assay: SPR
# T3 construct: Bought (Sino Biological, cat. 10084-H02H); captured on the SPR chip; also called PDL1-Fc chimeric protein
# Method in brief: (§1)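 Kinetics were fitted with a one-to-one Langmuir model to give apparent ka, kd and KD. Binders at 0.12-90 nM (three-fold series) flowed 3 min, with 10 min dissociation and 3 M MgCl₂ regeneration, on a Biacore T200.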
# [5] = target: cynomolgus CD137-Fc chimeric protein (cynomolgus monkey, UniProt A9YYE7 24-186); assay: SPR
# Method in brief: as §1
# [6] = target: T1, mouse CD137-Fc chimeric protein; assay: SPR
# Method in brief: as §1
# [7] = target: T4, Fc tagged human CD137 (human, UniProt Q07011 24-186); assay: SPR
# T4 construct: also called CD137-Fc chimeric protein
# Method in brief: as §1
# [8] = target: T2, CD137 on Jurkat NFkB reporter cells; assay: cell-based or functional assay; remark: listed apart in the source
# [9] = target: T2, CD137 on Jurkat NFkB reporter cells; assay: cell-based or functional assay; remark: listed apart in the source
# [10] = target: T2, CD137 on Jurkat NFkB reporter cells; assay: cell-based or functional assay; remark: listed apart in the source
# [11] = target: T2, CD137 on Jurkat NFkB reporter cells; assay: cell-based or functional assay; remark: listed apart in the source
# [12] = target: T2, CD137 on Jurkat NFkB reporter cells; assay: cell-based or functional assay; remark: listed apart in the source
# [13] = target: T5, biotinylated human PDL1 (human, UniProt Q9NZQ7 19-238, limits assumed, biotinylated); assay: competition ELISA PD-1/PDL1
# T5 construct: also called biotinylated PDL1
# [14] = target: T5, biotinylated human PDL1; assay: competition ELISA B7.1/PDL1
# Method in brief: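 Test mixtures containing biotinylated human PDL1 were pre-incubated 1 h at room temperature, then incubated 1.5 h on the plate under agitation. Bound PDL1 detected with 10 ng/ml streptavidin-polyHRP40 and TMB, stopped at 6 min with HCl, read at 450 nm minus 690 nm. IC₅₀ from 4PL fit.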
# [15] = target: T6, human PDL1 on cells (human, UniProt Q9NZQ7 19-290); assay: cell-based or functional assay
# [16] = target: T6, human PDL1 on cells; assay: cell-based or functional assay; remark: listed apart in the source
Binder,koff [4] [s⁻¹],koff [7] [s⁻¹],kon [7] [M⁻¹ s⁻¹],"EC50, NFkB reporter, HCC827 without IFNg [8]","EC50, NFkB reporter, CHO-PDL1 [10]","EC50, NFkB reporter, HCC827 with IFNg [11]","IC50 (ng/ml), NFkB reporter, CHO-PD-L1 [12] [ng/mL]","IC50 (ng/ml), NFkB reporter, HCC827 + IFNg [12] [ng/mL]","IC50 (ng/ml), NFkB reporter, HCC827 - IFNg [12] [ng/mL]","max. activation (%), NFkB reporter, CHO-PD-L1 [12] [%]","max. activation (%), NFkB reporter, HCC827 + IFNg [12] [%]","max. activation (%), NFkB reporter, HCC827 - IFNg [12] [%]","rel. IC50 (urelumab/test), NFkB reporter, CHO-PD-L1 [12] [fold]","rel. IC50 (urelumab/test), NFkB reporter, HCC827 + IFNg [12] [fold]","rel. IC50 (urelumab/test), NFkB reporter, HCC827 - IFNg [12] [fold]",IC50 [13] [ng/mL],rel. IC50 (IC50 avelumab/IC50 test) [13] [fold],other results
"PRO885 (bispecific antibody, scDb anti-PDL1 x CD137; also called 38-02-A04 sc01 scDb-i/33-03-G02 sc01 scDb-o) DIQMTQSPSSLSASVGDRVTITCQASQSINDYLAWYQQKPGKAPKLLIYKASTLASGVPSRFSGSGSGTDFTLTISSLQPEDFATYYCQQGYIITDIDNVFGTGTKVTVLGGGGGSQVQLQESGPGLVKPSETLSLTCKVSGFSFSNSYWICWIRQPPGKGLEWIGCTFVGSSDSTYYANWAKGRVTISVDSSKNQFSLKLSSVTAADTAVYYCARHPSDAVYGYANNLWGQGTLVTVSSGGGGSGGGGSGGGGSGGGGSIQMTQSPSSLSASVGDRVTITCQASQSINNVLAWYQQKPGKAPKLLIYRASTLASGVPSRFSGSGSGTDFTLTISSLQPEDFATYYCQSSYGNYGDFGTGTKVTVLGGGGGSQVQLQESGPGLVKPSETLSLTCKVSGFSFSSGYDMCWIRQPPGKGLEWIGCVVAGSVDITYYASWAKGRVTISVDSSKNQFSLKLSSVTAADTAVYYCARKDAYSDAFNLWGQGTLVTVSS",0.00014,0.00076,240000,11.5 ng/mL and 13.1 ng/mL and 13 ng/mL,5.13 ng/mL and 4.86 ng/mL and 6.3 ng/mL,9.27 ng/mL and 8.88 ng/mL and 9.23 ng/mL,11.7,8.88,13.1,499,134,111,6.75,16.3,8.42,8.35,0.17,"EC50, NFkB reporter, HCC827 with IFNg, 24 h [1]: 7.51 ng/mL; EC50, NFkB reporter, HCC827 without IFNg, 24 h [1]: 9.52 ng/mL; EC50, NFkB reporter, CHO-PDL1, 24 h [2]: 13.8 ng/mL; EC50, NFkB reporter, CHO-PDL1, 24 h, +HSA [2]: 14.8 ng/mL; EC50, NFkB reporter, CHO-PDL1 [3]: 11.7 ng/mL; kon [4]: 2.1e+06 M⁻¹ s⁻¹; Kd [5]: 2.1 nM; koff [5]: 0.0007 s⁻¹; kon [5]: 340000 M⁻¹ s⁻¹; Kd [6]: 600 nM; koff [6]: 0.18 s⁻¹; kon [6]: 290000 M⁻¹ s⁻¹; EC50, NFkB reporter, CHO-PDL1, 6 h [9]: 7.84 ng/mL; EC50, NFkB reporter, CHO-PDL1, 6 h, +HSA [9]: 7.92 ng/mL; IC50 [14]: 12.2 ng/mL; rel. IC50 (IC50 avelumab/IC50 test) [14]: 0.59 fold; IC50 (ng/ml), NF-AT potency assay [15]: 137 ng/mL; rel. IC50 (avelumab/test) [15]: 0.28 fold"
"PRO1126 (bispecific antibody, scDb; also called 38-02-A04 sc01 scDb-i/33-03-G02 sc03 Full scDb-o) DFQLTQSPSSLSASVGDRVTITCQASQSINDYLAWYQQKPGKSPKLLIYKASTLASGVPSRFSGSGSGTDFTLTISSLQPEDFATYYCQQGYIITDIDNVFGTGTKVTVLGGGGGSQVQLQESGPGLVKPSETLSLTCKVSGFSFSNSYWICWIRQPPGKGLEWIGCTFVGSSDSTYYANWAKGRVTISVDSSKNQFSLKLSSVTAADTAVYYCARHPSDAVYGYANNLWGQGTLVTVSSGGGGSGGGGSGGGGSGGGGSIQMTQSPSSLSASVGDRVTITCQASQSINNVLAWYQQKPGKAPKLLIYRASTLASGVPSRFSGSGSGTDFTLTISSLQPEDFATYYCQSSYGNYGDFGTGTKVTVLGGGGGSQSQLQESGPGLVKPSETLSLTCKASGFSFSSGYDMCWVRQPPGKGLEWIACVVAGSVDITYYASWAKGRVTISKDSSKNQVSLKLSSVTAADTAVYFCARKDAYSDAFNLWGQGTLVTVSS",< 1e-05,0.00075,210000,6.97 ng/mL,6 ng/mL,5.48 ng/mL,6,5.48,6.97,242,208,135,14.4,19.7,16,1.28,1.59,"IC50, NFAT reporter gene assay [16]: 48.1 ng/mL; Kd [4]: ≤ 0.0035 nM; fold improvement in affinity against PRO885 (CDR graft) [4]: 20 fold; binding result [6]: no binding; Kd [7]: 3.5 nM; Top of curve fit, NFkB reporter, HCC827 without IFNg [8]: 135; Top of curve fit, NFkB reporter, CHO-PDL1 [10]: 242; Top of curve fit, NFkB reporter, HCC827 with IFNg [11]: 208"
